Data taken from PMC12371180, “Redox regulation of LSD1/CATALASE 2 phase separation condensates controls location and functions” (The New Phytologist, 2025).

T1: peroxisome import receptor PEX5, recombinant Arabidopsis thaliana, full-length (Arabidopsis thaliana, UniProt Q9FMA3 1-728, unlabelled in MST; labelled with Atto-647 in the condensate imaging)
T1 construct: PEX5, peroxisomal PTS1 import receptor, Arabidopsis thaliana, full-length recombinant protein; cloning not described; The cloning of the PEX5 construct is not described in the methods
T1 sequence (looked up): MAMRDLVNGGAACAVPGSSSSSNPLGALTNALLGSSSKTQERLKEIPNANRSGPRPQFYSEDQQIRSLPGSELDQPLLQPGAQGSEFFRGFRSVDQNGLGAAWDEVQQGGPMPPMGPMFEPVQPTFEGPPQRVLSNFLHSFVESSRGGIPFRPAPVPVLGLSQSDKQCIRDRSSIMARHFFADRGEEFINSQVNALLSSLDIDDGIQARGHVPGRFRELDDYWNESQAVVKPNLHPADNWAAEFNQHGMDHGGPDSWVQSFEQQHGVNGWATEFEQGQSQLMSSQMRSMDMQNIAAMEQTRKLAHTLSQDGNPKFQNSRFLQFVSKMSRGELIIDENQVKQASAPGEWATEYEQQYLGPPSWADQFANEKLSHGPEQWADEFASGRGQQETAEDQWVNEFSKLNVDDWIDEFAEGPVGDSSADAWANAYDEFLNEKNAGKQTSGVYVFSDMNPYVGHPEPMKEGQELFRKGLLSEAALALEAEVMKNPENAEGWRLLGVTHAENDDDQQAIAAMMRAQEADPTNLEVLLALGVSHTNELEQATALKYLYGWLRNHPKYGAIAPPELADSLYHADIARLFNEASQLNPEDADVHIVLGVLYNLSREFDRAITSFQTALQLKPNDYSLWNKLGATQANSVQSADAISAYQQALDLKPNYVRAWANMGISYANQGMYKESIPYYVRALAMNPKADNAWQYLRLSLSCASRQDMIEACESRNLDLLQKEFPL

T2: PEX5-CAT2 complex (Atto-488-labelled CAT2 saturated with PEX5) (Arabidopsis thaliana, UniProt P25819 1-492; Q9FMA3 1-728, labelled with Atto-488 (protein to dye 1:1))
T2 construct: catalase 2 (CAT2), Arabidopsis thaliana, full-length recombinant protein; as the chain of m2; PEX5, peroxisomal PTS1 import receptor, Arabidopsis thaliana, full-length recombinant protein; as the chain of m3
T2 sequence (looked up) 1: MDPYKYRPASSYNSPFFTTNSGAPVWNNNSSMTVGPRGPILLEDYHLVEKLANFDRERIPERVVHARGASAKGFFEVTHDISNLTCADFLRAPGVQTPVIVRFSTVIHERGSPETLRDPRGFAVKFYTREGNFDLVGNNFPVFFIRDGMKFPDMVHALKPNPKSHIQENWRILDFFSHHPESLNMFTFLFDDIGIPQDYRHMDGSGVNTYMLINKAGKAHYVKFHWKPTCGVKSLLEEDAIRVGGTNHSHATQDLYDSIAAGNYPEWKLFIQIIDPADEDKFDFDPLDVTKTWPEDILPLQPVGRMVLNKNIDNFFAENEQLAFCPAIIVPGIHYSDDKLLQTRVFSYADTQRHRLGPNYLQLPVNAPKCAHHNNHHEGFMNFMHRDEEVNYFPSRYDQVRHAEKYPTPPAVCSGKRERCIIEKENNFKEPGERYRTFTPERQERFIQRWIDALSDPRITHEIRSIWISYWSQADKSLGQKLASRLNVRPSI
T2 sequence (looked up) 2: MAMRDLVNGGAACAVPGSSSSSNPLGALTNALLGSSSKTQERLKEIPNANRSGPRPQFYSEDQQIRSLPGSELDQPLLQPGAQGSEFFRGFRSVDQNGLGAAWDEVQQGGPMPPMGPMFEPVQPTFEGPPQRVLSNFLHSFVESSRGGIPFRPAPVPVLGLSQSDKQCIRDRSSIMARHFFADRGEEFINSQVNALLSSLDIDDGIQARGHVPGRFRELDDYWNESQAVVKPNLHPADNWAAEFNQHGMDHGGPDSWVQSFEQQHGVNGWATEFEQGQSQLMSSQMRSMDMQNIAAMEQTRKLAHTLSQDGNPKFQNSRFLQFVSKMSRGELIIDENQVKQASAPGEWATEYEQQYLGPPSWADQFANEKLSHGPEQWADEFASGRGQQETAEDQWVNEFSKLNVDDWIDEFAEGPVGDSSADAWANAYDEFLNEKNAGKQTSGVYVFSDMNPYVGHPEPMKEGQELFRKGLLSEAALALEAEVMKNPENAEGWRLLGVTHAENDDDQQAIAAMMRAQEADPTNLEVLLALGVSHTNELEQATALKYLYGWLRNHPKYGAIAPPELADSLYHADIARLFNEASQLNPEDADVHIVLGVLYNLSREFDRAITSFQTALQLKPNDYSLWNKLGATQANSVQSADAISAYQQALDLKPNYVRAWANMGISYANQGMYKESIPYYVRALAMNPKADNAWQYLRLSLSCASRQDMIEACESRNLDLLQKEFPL


Tests used:
[1] = biological target: T1, peroxisome import receptor PEX5, …; test: MST; 100 nM Atto-488-labelled CAT2, unlabelled partner serially diluted; 25°C, 20 mM HEPES pH 7.5, 20 mM NaCl, 0.05% Tween 20; Monolith NT.115; conditions: both partners purified
[2] = biological target: catalase 2 (CAT2), recombinant Arabidopsis thaliana, full-length (Arabidopsis thaliana) (UniProt P25819)
[3] = biological target: T2, PEX5-CAT2 complex (Atto-488-labelled …); test: MST; Atto-488-labelled CAT2 saturated with PEX5 (10-fold above the affinity value) before titration of LSD1; 25°C, 20 mM HEPES pH 7.5, 20 mM NaCl, 0.05% Tween 20; conditions: both partners purified

Kd [1] [nM] | catalase activity (change of 240 nm absorbance in 30 mM H2O2) of 10 μM CAT2 mixed with 10 μM LSD1 to form LSD1-CAT2 condensates, against CAT2 alone [2] [fold] | Kd [3] [nM] | Binder
2350 ± 279 |  |  | catalase 2 (CAT2), recombinant Arabidopsis thaliana, full-length (enzyme, UniProt P25819 1-492, looked up, labelled with Atto-488 (protein to dye 1:1) in MST and in the condensate imaging, catalase 2 (CAT2), Arabidopsis thaliana, full-length recombinant protein; cloned into pET28b with NdeI and XhoI; pET28b with NdeI cloning would usually add an N-terminal His tag (surmise)) MDPYKYRPASSYNSPFFTTNSGAPVWNNNSSMTVGPRGPILLEDYHLVEKLANFDRERIPERVVHARGASAKGFFEVTHDISNLTCADFLRAPGVQTPVIVRFSTVIHERGSPETLRDPRGFAVKFYTREGNFDLVGNNFPVFFIRDGMKFPDMVHALKPNPKSHIQENWRILDFFSHHPESLNMFTFLFDDIGIPQDYRHMDGSGVNTYMLINKAGKAHYVKFHWKPTCGVKSLLEEDAIRVGGTNHSHATQDLYDSIAAGNYPEWKLFIQIIDPADEDKFDFDPLDVTKTWPEDILPLQPVGRMVLNKNIDNFFAENEQLAFCPAIIVPGIHYSDDKLLQTRVFSYADTQRHRLGPNYLQLPVNAPKCAHHNNHHEGFMNFMHRDEEVNYFPSRYDQVRHAEKYPTPPAVCSGKRERCIIEKENNFKEPGERYRTFTPERQERFIQRWIDALSDPRITHEIRSIWISYWSQADKSLGQKLASRLNVRPSI
 | 2.5 | 136 ± 39.8 | LESION SIMULATING DISEASE1 (LSD1), recombinant Arabidopsis thaliana, full-length (natural protein, UniProt P94077-2 1-184, looked up, unlabelled when titrated in MST; labelled with Atto-550 in the condensate imaging, LSD1 (LESION SIMULATING DISEASE1), Arabidopsis thaliana, full-length, cloned into pET28b with NdeI and NotI; pET28b with NdeI cloning would usually add an N-terminal His tag (surmise; source: dialysed)) MQDQLVCHGCRNLLMYPRGASNVRCALCNTINMVPPPPPPHDMAHIICGGCRTMLMYTRGASSVRCSCCQTTNLVPAHSNQVAHAPSSQVAQINCGHCRTTLMYPYGASSVKCAVCQFVTNVNMSNGRVPLPTNRPNGTACPPSTSTSTPPSQTQTVVVENPMSVDESGKLVSNVVVGVTTDKK
